From patent US20220002389A1

B1: SW-1C10 (1C10 antibody produced in the cocoons of transgenic silkworms) (antibody, human IgG1, kappa, V domains shown)
VH: EVQLVESGGGVVQPGRSLRVSCVASGFMFSNYAMHWVRQTAGKGLEWVAIISNDGSDKYYADSVQGRFTVSRDNSQNTLFLQMSGLRPEDSGLYYCARDLDQTIPDLTAPAFEVWGQGTMVTVSS
VL: DIVMTQSPLSLAVTPGEPASISCRSSQSLLHSDGNNYLDWYLQKPGQSPQLLIYLTSNRASGVPDRFSGSGSGTDFTLKISRVEAEDVGVYFCMQSLQTWTFGQGTKVEIKR
modifications: N-glycans without core fucose (silkworm-produced)
B2: 293A-1C10 (1C10 antibody of 293A origin) (antibody, human IgG1, kappa, V domains shown)
VH: B1 VH
VL: B1 VL

Experiments:
[1] = molecular target: HIV-1 BaL strain envelope protein (gp120) on BaL-infected CEM.NKR-CCR5 (NKR24) cells (HIV-1 BaL strain); experiment: flow cytometry on BaL-infected NKR24 cells; antibody at 0.032 µg/mL
[2] = molecular target: HIV-1 BaL strain envelope protein (gp120) on BaL-infected CEM.NKR-CCR5 (NKR24) cells (HIV-1 BaL strain); experiment: flow cytometry on BaL-infected NKR24 cells; antibody at 20 µg/mL
[3] = molecular target: HIV-1 BaL strain envelope protein (gp120) on BaL-infected CEM.NKR-CCR5 (NKR24) cells (HIV-1 BaL strain); experiment: flow cytometry on BaL-infected NKR24 cells; antibody at 0.8 µg/mL
[4] = molecular target: HIV-1 BaL strain envelope protein (gp120) on BaL-infected CEM.NKR-CCR5 (NKR24) cells (HIV-1 BaL strain); experiment: flow cytometry on BaL-infected NKR24 cells; antibody at 0.16 µg/mL
[5] = molecular target: HIV-1 BaL strain envelope protein (gp120) on BaL-infected CEM.NKR-CCR5 (NKR24) cells (HIV-1 BaL strain); experiment: cell-based or functional assay
[6] = molecular target: HIV-1 BaL strain envelope protein (gp120) on BaL-infected CEM.NKR-CCR5 (NKR24) cells (HIV-1 BaL strain); experiment: flow cytometry on BaL-infected NKR24 cells; antibody at 100 µg/mL
[7] = molecular target: HIV-1 BaL strain envelope protein (gp120) on BaL-infected CEM.NKR-CCR5 (NKR24) cells (HIV-1 BaL strain); experiment: flow cytometry on BaL-infected NKR24 cells; antibody at 4 µg/mL

Row | Binder | MFI [1] | MFI [2] | MFI [3] | MFI [4] | IC50 (50% inhibitory concentration) of infection of TZM-bl cells by BaL virus, luciferase RLU; 'Dose at Y = 50' [5] | MFI [6] | MFI [7]
1 | B1 | 779 MFI | 1640 MFI | 1260 MFI | 1080 MFI | 0.108 µg/mL | 1900 MFI | 1440 MFI
2 | B2 | 983 MFI | 1780 MFI | 1290 MFI | 1210 MFI | 0.133 µg/mL | 1780 MFI | 1530 MFI
